From the supplement of paper PMC10567573 come the findings set out here.

First the molecules themselves.
B1: SPDEF (parent)
chain: FQELAGKELCAMSEEQFRQRSPLG
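Also: lentivirally expressed fusions sorted by FACS into six bins by GFP to DsRed ratio, PSI derived from sequencing read proportions per bin multiplied by bin number.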

This data set covers variants of B1. In words: protein stability index of a GFP-peptide fusion (GPS, HEK-293T) (PSI 1-6); higher = more stable. The settings on record: c terminus: a fixed tail appended.
Consider FQELAGKELCAMSWEQFRQRSPLG [E14W], for which the protein stability index is 2.95.

As to FQELAGKYLCAMSEEQFRQRSPLG [E8Y], the protein stability index came to 1.89. With FQELAGKALCAMSEEQFRQRSPLG [E8A] the figure was 2.37; with FQELAGKILCAMSEEQFRQRSPLG [E8I], 1.53.

FQELAGKMLCAMSEEQFRQRSPLG [E8M]: the protein stability index was 2.5.

With FQELAGKNLCAMSEEQFRQRSPLG [E8N], the protein stability index was determined as 2.27. With FQELAGKSLCAMSEEQFRQRSPLG [E8S] the figure was 2.12; with FQELAGKPLCAMSEEQFRQRSPLG [E8P], 2.06. With FQELAGKVLCAMSEEQFRQRSPLG [E8V] the figure was 2.52. With FQELAGKLLCAMSEEQFRQRSPLG [E8L] the figure was 2.5; with FQELAGKDLCAMSEEQFRQRSPLG [E8D], 2.79. As to FQELAGKWLCAMSEEQFRQRSPLG [E8W], the protein stability index worked out at 2.87. With FQELAGKTLCAMSEEQFRQRSPLG [E8T] the figure was 1.99; with FQELAGKGLCAMSEEQFRQRSPLG [E8G], 1.73; with FQELAGKKLCAMSEEQFRQRSPLG [E8K], 2.32. Turning to FQELAGKHLCAMSEEQFRQRSPLG [E8H], the protein stability index was 1.77. Take FQELAGKQLCAMSEEQFRQRSPLG [E8Q]: the protein stability index stood at 2.25. With FQELAGKFLCAMSEEQFRQRSPLG [E8F] the figure was 2.79; with FQELAGKRLCAMSEEQFRQRSPLG [E8R], 1.78; with FQELAGKELCAMSEEQGRQRSPLG [F17G], 3.58. As for FQELAGKELCAMSEEQCRQRSPLG [F17C], the protein stability index amounted to 3.14. On to FQELAGKELCAMSEEQIRQRSPLG [F17I], for which the protein stability index was 3.22. With FQELAGKELCAMSEEQDRQRSPLG [F17D] the figure was 3.85. Consider FQELAGKELCAMSEEQERQRSPLG [F17E], for which the protein stability index is 3.85. With FQELAGKELCAMSEEQHRQRSPLG [F17H] the figure was 3.14; with FQELAGKELCAMSEEQARQRSPLG [F17A], 3.37. With FQELAGKECCAMSEEQFRQRSPLG [L9C] the figure was 2.63; with FQELAGKEQCAMSEEQFRQRSPLG [L9Q], 4.25; with FQELAGKEKCAMSEEQFRQRSPLG [L9K], 3.61. With FQELAGKERCAMSEEQFRQRSPLG [L9R] the figure was 3.24. Regarding FQELAGKEDCAMSEEQFRQRSPLG [L9D], the protein stability index is 4.79. With FQELAGKEFCAMSEEQFRQRSPLG [L9F] the figure was 2.56; with FQELAGKEVCAMSEEQFRQRSPLG [L9V], 2.71; with FQELAGKEACAMSEEQFRQRSPLG [L9A], 3.41.

With FQELAGKEPCAMSEEQFRQRSPLG [L9P], the protein stability index is 3.83. With FQELAGKEECAMSEEQFRQRSPLG [L9E] the figure was 4.93; with FQELAGKEYCAMSEEQFRQRSPLG [L9Y], 3.25. With FQELAGKESCAMSEEQFRQRSPLG [L9S], the protein stability index is 3.23. With FQELAGKEICAMSEEQFRQRSPLG [L9I], the protein stability index came out at 3.19. With FQELAGKEGCAMSEEQFRQRSPLG [L9G] the figure was 4.34; with FQELAGKEMCAMSEEQFRQRSPLG [L9M], 3.41; with FQELAGKEWCAMSEEQFRQRSPLG [L9W], 2.8.

Regarding FQELAGKENCAMSEEQFRQRSPLG [L9N], the protein stability index stood at 4.37. With FQELAGKETCAMSEEQFRQRSPLG [L9T] the figure was 3.69.

For FQELAGKEHCAMSEEQFRQRSPLG [L9H], the protein stability index was 3.9.

For the variant FQELAGYELCAMSEEQFRQRSPLG [K7Y], the protein stability index stood at 1.58. For FQELAGTELCAMSEEQFRQRSPLG [K7T], the protein stability index amounted to 3.38.

Consider FQELAGVELCAMSEEQFRQRSPLG [K7V], for which the protein stability index is 2.61. Regarding FQELAGMELCAMSEEQFRQRSPLG [K7M], the protein stability index is 2.97.

Take FQELAGQELCAMSEEQFRQRSPLG [K7Q]: the protein stability index came out at 4. With FQELAGPELCAMSEEQFRQRSPLG [K7P] the figure was 3.35. On to FQELAGRELCAMSEEQFRQRSPLG [K7R], for which the protein stability index stood at 2.3. With FQELAGSELCAMSEEQFRQRSPLG [K7S] the figure was 2.94; with FQELAGNELCAMSEEQFRQRSPLG [K7N], 2.84; with FQELAGLELCAMSEEQFRQRSPLG [K7L], 2.3. For the variant FQELAGWELCAMSEEQFRQRSPLG [K7W], the protein stability index was 1.73. With FQELAGKELCAMDEEQFRQRSPLG [S13D], the protein stability index is 2.89. With FQELAGKELCAMMEEQFRQRSPLG [S13M] the figure was 2.45.

In the case of FQELAGKELCAMHEEQFRQRSPLG [S13H], the protein stability index is 2.2. On to FQELAGKELCAMYEEQFRQRSPLG [S13Y], for which the protein stability index is 2.4. For the variant FQELAGKELCAMCEEQFRQRSPLG [S13C], the protein stability index was 2.11. With FQELAGKELCAMGEEQFRQRSPLG [S13G] the figure was 2.57; with FQELAGKELCAMQEEQFRQRSPLG [S13Q], 2.62. As for FQELAGKELCAMFEEQFRQRSPLG [S13F], the protein stability index worked out at 2.15. With FQELAGKELCAMWEEQFRQRSPLG [S13W] the figure was 2.08; with FQELAGKELCAMEEEQFRQRSPLG [S13E], 2.61; with FQELAGKELCAMKEEQFRQRSPLG [S13K], 2.58. As to FQELAGKELCAMNEEQFRQRSPLG [S13N], the protein stability index came out at 2.48. Turning to FQELAGKELCAMREEQFRQRSPLG [S13R], the protein stability index was 2.73. In the case of FQELAGKELCAMVEEQFRQRSPLG [S13V], the protein stability index came to 3.05.

Consider FQELAGKELCAMPEEQFRQRSPLG [S13P], for which the protein stability index is 3.18. With FQELAGKELCAMTEEQFRQRSPLG [S13T] the figure was 2.69; with FQELAGKELCAMIEEQFRQRSPLG [S13I], 2.19; with FQELAGKELCAMLEEQFRQRSPLG [S13L], 1.71.

Consider FQELAGKELCAMAEEQFRQRSPLG [S13A], for which the protein stability index stood at 3.62. Regarding FQELAGKELIAMSEEQFRQRSPLG [C10I], the protein stability index was determined as 3.34. With FQELAGKELAAMSEEQFRQRSPLG [C10A] the figure was 3.31; with FQELAGKELRAMSEEQFRQRSPLG [C10R], 3.12. With FQELAGKELVAMSEEQFRQRSPLG [C10V] the figure was 2.93; with FQELAGKELEAMSEEQFRQRSPLG [C10E], 3.9.

With FQELAGKELSAMSEEQFRQRSPLG [C10S], the protein stability index is 3.4. Regarding FQELAGKELKAMSEEQFRQRSPLG [C10K], the protein stability index is 2.67. With FQELAGKELFAMSEEQFRQRSPLG [C10F] the figure was 2; with FQELAGKELDAMSEEQFRQRSPLG [C10D], 4.38; with FQELAGKELGAMSEEQFRQRSPLG [C10G], 3.05. In the case of FQELAGKELYAMSEEQFRQRSPLG [C10Y], the protein stability index is 2.4. For the variant FQELAGKELQAMSEEQFRQRSPLG [C10Q], the protein stability index was 3.46.

Regarding FQELAGKELWAMSEEQFRQRSPLG [C10W], the protein stability index was found to be 1.9. With FQELAGKELPAMSEEQFRQRSPLG [C10P] the figure was 4.32; with FQELAGKELHAMSEEQFRQRSPLG [C10H], 3.12; with FQELAGKELLAMSEEQFRQRSPLG [C10L], 2.79. With FQELAGKELMAMSEEQFRQRSPLG [C10M] the figure was 2.91. For FQELAGKELTAMSEEQFRQRSPLG [C10T], the protein stability index came out at 3.52. For FQELAGKELNAMSEEQFRQRSPLG [C10N], the protein stability index is 3.1.
